From publication PMC10515612, “Analytical Ultracentrifugation-Calibrated Anion-Exchange Chromatography for Sensitive and Intact Determination of Osteopontin in Infant Formula and Dairy Products” (Journal of Agricultural and Food Chemistry, 2023)
“And” between values parts separate entries of the source, which are not always exact repeats. Equal values may be shown once.

Target: the molecule itself
Experiment: AUC; sedimentation velocity, interference optics, OPN 1 mg/mL, 20 °C, 50,000 rpm; buffer changed from 20 mM THAM (10 mM NaCl, pH 8.00) to 20 mM PBS

B1: Osteopontin (bovine milk osteopontin, in-house reference standard) (natural protein)
chain: not shown
modifications: phosphorylations (~1.7 kDa) and O-linked glycosylations (2.9 kDa) on the full-length form; sites not given
notes: Osteopontin, bovine, from milk; By MALDI-TOF the material also holds an N-terminal fragment (150 amino acids, ~19.8 kDa); The sample is a mixture of full-length OPN and an N-terminal fragment of about 150 residues; also called OPN; bovine OPN; source: high-purity OPN protein ingredient extracted and provided by Arla Foods Ingredients (Denmark)
stoichiometry N: 4 and 8
